The values that follow come from patent US20170247463A1.

For one assay, the target named is hFcγRI. Put plainly: -; range printed as 0.12~0.28.
For the next assay, the target named is hFcγRIIIa158V. The assay can be described thus: -; range printed as 0.20~0.28.
For the next assay, the target named is hFcγRIIa131H. Put plainly: -.

IgG 1: the Kd with hFcγRI is 0.12 nM; in the assay with hFcγRIIIa158V it was 200 nM; with hFcγRIIa131H, 850 nM.
